Literature values as cited in paper PMC3218206 (Chemical biology & drug design, 2011).

Key:
[1] = target: Nrf2 14mer peptide (Homo sapiens); test: ITC

Kd [1] [nM] | Substance | displacement of Nrf2 from Keap1-Nrf2 complex (Keap1-Nrf2 complex)
20 | Keap1 (from UniProt Q14145) | –
– | LQLDEETGEFLPIQ | effectively
